Test: soluble on expression in E. coli; label from the status in PepcDB or PDB records

Sequence	soluble on expression in E. coli
SNPLCSRCNRVVYPTEKVNCLDKYWHKGCFSCEVCKMTLNMKNYKGFEKRPYCNAHYPKTSFTSVADTPENLRLKQQSKMQSQVLYKEEFEKNKGKGFSVVADTPELQRIKKTQDQISNIKYHEDFEKSRSGGDTPLPLTPQLNTPPAYPSSAASQNYHYEPEPVRPAAAAPPPSSGKRYRAVYDYTAADEDEVSFMDGDMIVDVQQIDEGWMYGRVERTGQQGMLPANYVEAM	soluble
MSQDFVTLVSKDDKEYEISRSAAMISPTLKAMIEGPFRESKGRIELKQFDSHILEKAVEYLNYNLKYSGVSEDDDEIPEFEIPTEMSLELLLAADYLSI	soluble
MILLPLHCGHVPCFPPLELPVTHVAVIGAGFSGLAAALRLAQAGAQVTVLDALDRPGGKAALGYDDFSSGPTVVTMPQIFAALHARLGWDAPALTPAHPTTTYHALSGRTFAPEALNVVGSLDPTMTQLSRAEGRRYRQLLFAARQMYSGAADTFLFAPPPTRTQLAQYALRAGRQAAPLTPLARYVRSGPFLTPFWLRFATYLGADPYRAPAVLHNIAWVELGDGIWHLPGGLLALAERLYAEALDRGVRFEFGIQVQHLSTHGGRVLGAHTSRGAFAADRWVSAADRALTLGWLGQDTPTTPRGVSGFALQLRLGEDLGQGHHIFWPADYAREWQDIRAGRLPSEPTLYLHLDGPRAFLLVNAPPDPRLGLSPERKADYARHLLQRLQSRFPLPVVEWQALAPADYARTGLGGALYGRAPHGLLGSLRPGWRLPQARNLVQVGGTVHPGGGVPLSLLSGWNGAGSLLGLDYDSLDGEKAFGKPAPAIKLEHHHHHH	not soluble
MGSDKIHHHHHHMLQVTDVSLRFGDRKLFEDVNIKFTEGNCYGLIGANGAGKSTFLKILSGELDSQTGHVSLGKNERLAVLKQDHYAYEDERVLDVVIKGHERLYEVMKEKDEIYMKPDFSDEDGIRAAELEGEFAEMNGWNAEADAANLLSGLGIDPTLHDKKMAELENNQKIKVLLAQSLFGEPDVLLLDEPTNGLDIPAISWLEDFLINFDNTVIVVSHDRHFLNNVCTHIADLDFGKIKVYVGNYDFWYQSSQLAQKMAQEQNKKKEEKMKELQDFIARFSANASKSKQATSRKKQLEKIELDDIQPSSRRYPFVKFTPEREIGNDLLIVQNLSKTIDGEKVLDNVSFTMNPNDKAILIGDSEIAKTTLLKILAGEMEPDEGSFKWGVTTSLSYFPKDNSEFFEGVNMNLVDWLRQYAPEDEQTETFLRGFLGRMLFSGEEVKKKASVLSGGEKVRCMLSKMMLSSANVLLLDEPTNHLDLESITAVNDGLKSFKGSIIFTSYDFEFINTIANRVIDLNKQGGVSKEIPYEEYLQEIGVLK	not soluble
MKTLLEVKDLQVSFDTHAGEVQAVRGVTFDLKKGETLAIVGESGSGKSVTSKALMGLIPNPPGRIKNGEIVFEGRDLTKLTEKEMQQVRGKDIAMIFQDPMTSLNPTMTIGNQIMEGLIKHQGMSKADARKVALELIDLVGIPNPEARLKQYPHQFSGGMRQRVVIAMALACNPKLLIADEPTTALDVTIQAQILELMKDIQQKTEAAIIFITHDLGVVANVADRVAVMYAGKVVEIGTVDEIFYNPKHPYTWGLIASMPSLDGSEEELYAIPGTPPDLLKPPKGDAFAPRNPQALKIDFEMDPPLFKVSDTHYAATWLLHEQAPEVRPPAVVEKRILQMKAGEQHD	not soluble
MGSDKIHHHHHHMSNYRNPHQLIITADDYGMCPEVNRAIEECLAAGALRATCVMTNMPAYTDADRLSKDFPSASIGIHWTLTAGTPVAPLSEVPDLVAPNGQFWPAAEFRQRWLSRRISPTQVVIELQAQHARFVELIGQPAFWNTHQNVHVLPRLFPLVVDLAHRLGIPAMRSHRRITAPRHSSTLRYYLTHPIYWLKGQIIARWAAAAEKRGLRMPAGVVSTPGFGPGKVAIDQIIARIPWPRRLPAELVIHPATRVIPGLFGGLTESRLREFEVFRDPTLVERLAAMGVQPVGFEVL	not soluble
MAHHHHHHMMSSASLLEKVPQPWAALVRPFLQRSHEFEDKEPLVAYYLRTHVAFLCMRQRSKEDKDGTAFLMTLLDALEASKARLGAQLQGIDGRTVLTKFALMLFARADDAERTGNASMAIVRLFYTASVLFEATAQFTDDGAMDAVAAQKSKYAKYIATRMKKALDKNEPYVSPNKLETADDDAAGGVGGVNGAGPATTFTTAPASCFMRPTSQPTSVSNRAPAPTTAHENLPALPYAPPPVTQKLDTPPPPPHTPDADTQGRSKTPVHPSPMKNTYAPPQPQHTSQQQQWLSTSSAVPSLPPTPSSAQQRYAAPSSAGGGVGATGFKPSVDQMIDAQKLASQAVSALQFYDYENAKQQLVASLRVLNGVQ	soluble
AHHHHHHGSGLFDKLKKAEVQKKVPSSLKSRIKEEPSEVELVPVEEEVLAKELVKPKVVYIKKIVISTHADLKRVSDELKSGNIVIVELTPLEQKPELLKKIAEQLMTTASIIGGDYAKICGSPLKVILTPPEIKIAKE	not soluble
MSLRASTVKQHAFGLLIPELGQTEIFEPICQGMVAAQEAHNHVLIWGRSLAGSETTEADAKDVCARLISNRVSGVFFAPIEANPQKDAINRIISTMLSDAKIPIVLLDRDIVDYPQRSKFDVVGIDNRRAGCVATQHLIDAGCRRIGFIGRPHLAPSCVARCNGYRETVSNSSIPLAPTFAERLDPSDPILVGKVMDRHKPDGIVCSNDRTAALLMRTFATLKIAVPDQVRLVAFDDVKYASLVTVPLTTIHQPCDQLGAAAIQAMVQRIESPDMPPRDILVDFHLVVRESCGARMAREGHHHHHH	soluble
MTSGAPPTISTEKSRSKQLRKSSKRTASTVEGTEAKQMRGDTENRSDGEMDDVSTSSEIRHGNGFIENFRSQTGNSSRTTATNERIKKKLVIKNFKANANQNDVAMGDTNIDSTDGSVGRDWAVLSDNVFAILEDRKTVTTLEGLFSKVRSVCDKNQSKVLYDRLVAIVVQFAKSLKESLNAVEQVPLAEDNCEQYLEKFGQIWQAYPVKINLIRNIFLHLDRIALGATDTEILPLWECFMQIFQKTFFPNIFKEFKATKLFNALYMAMQKIMQRYPVDSPLRSLVDMLQTVHVSEEFAKFLISQLREHYNNERIDKVPKMNCNDYMEYCEDQINRYSQLVKVNFDEPSALKDVQATVTNCLIQQAIPEILTHDFDDLIDSDNISDIGRMFNLCRQCVGGEDEVRTQFSKYLKKRGEKLIATCPDEDLVSELLAFKKKVDFIMTGSFKSANDPVKMRQCLSDAFESFVNKQVDRSAELISKHFHTLLHSSNKNVSDDTTLDQMVDEAIVLFRYLRGKDVFEAYYKRGLAKRLFLERSASVDAEKMVLCKLKTECGSAFTYKLEGMFKDMDASENYGRLFNQYLEHMNKEKANFTARVITPEYWPTYDTYEINIPKEMRDTLTDYQDFYRVQHGNRNVKWHHGLASAVISASFRPGCKKELIATMYQTVILLLFNKCETWTVAEIVEHTKILEIEVVKNVLALLGGRDKPKVLQRVEGGGSEKKEGTVENLKNEKFVVNSKFTEKRCRVRIAQVNIKTAVEETKEVKEEVNSDRQYKIDAAVVRIMKARKQLNHQTLMTELLQQLRFPVSTADIKKRLESLIEREYISRDPEEASSYNYVA	not soluble
MKRRLLCALLASTLAQPLTVRADLPDLGEISDASLSLSDEARIGRDALRAMREAGDVVDDPEVNAYLNDVGGRLAAAAAVPGVRFTYFCVADAGINAFAMPGGYVGINIGLMLASQSEGELAAVLGHETAHVAQRHIARMQAANSAASPLLLLGTIVAAALAAKAGSGDGAMGAVSAGMGLSISRQLAFSRDFEREADRVGMQYMSAAGFDVRNMAAFFQRLEQASRYSDNTAYAFLRTHPVTLERISEAQNRALDYPVRMRADSVDYLLVREKLRVLTLSPEEAVSHYSSALQRGLYLNEGANWYGLARAKLLQHDRAGASEALAKARAKLPDNPMLYGLEVEIARDGRDWAAAARAARNGLSAFPRSVSLQLAQLDVALDGGDRKAAQAQLRQLLDSRRDDPALYRREAKLYADKDPLRYHAALGNAFYYEQRYGAALEQYQLAGKAKGDDFYLRSMLEARLREVEKLAKEERKAARNLEHHHHHH	soluble
MKVLTVVIPCYNSAEYMDRAIESLLIGDEELEILIVNDGSMDNTSIIADEYEKKYPNTIRVIHKENGGHGDAINTGLKHSKGVYFKVLDSDDWFDKASLKKVLEVLKNMIKDSKSLDMLISNYVYENFSINKSRSINYKGAMPKEKIFTWDSLGHLKSSQNILMHSVIYRTELLRECNLDLPKHTFYVDNIFVYKPLPYVKTMYYLDVDLYRYFIGREDQSVNEKVMIKRIDQQIKVTKILIDCYNPMLLNCKKLRKYMVKYLVMMMTVSTVLLIKDNTEQSLNKKRELWSYLHSKNRKLYFEVNKSFLGLLIQIKGFVGRKIILLGYSLSRKVFGFNLEHHHHHH	not soluble

Source: the DeepSol protein solubility set
